Molecular target: T1, Recombinant human IgG1 Fc (hFc) (human, UniProt P01857-1 100-330 = IgG part)
T1 construct: domain: Fc; Bought reagent; also called Recombinant Human IgG Fc
Assay: sandwich ELISA: hEDAR-mFc coated, anti-human IgG (Fc) CH2-HRP detection
Protocol: For validation, ELISA plates (96-well Microtiter Plates, Nunc 96F Maxisorp (Thermo Fisher, Pittsburgh, Pa.)) were coated with 1 μg/mL hEDARmFc coating solution. For the binding step, standards, QCs, Blank (assay buffer alone), and other required samples were added to the appropriate wells of an assay plate. Plates were incubated for approximately 120 minutes and then washed. For the detection step, the detection reagent was added to each required well and the plate was incubated for approximately 60 minutes and then washed. For the substrate step, Ultra TMB (1-Step Ultra TMB-ELISA Substrate (Thermo Scientific, Pittsburgh, Pa.)) was added to each well and the plate was incubated for approximately 20 to 30 minutes. Color development was monitored at 650 nm so that development could be discontinued when the OD of the 250 ng/mL standard was between 1.3 and 1.4. To stop the color reaction, 2N sulfuric acid was added to each well. The OD at 450 nm was determined with the correction wavelength set at 540 nm.

binding result: no binding (tested: 100 ng/mL)
B1: hEDAR-mFc (Fc fusion, human, UniProt Q9UNE0 27-183, looked up)
chain: EYSNCGENEYYNQTTGLCQECPPCGPGEEPYLSCGYGTKDEDYGCVPCPAEKFSKGGYQICRRHKDCEGFFRATVLTPGDMENDAECGPCLPGYYMLENRPRNIYGMVCYSCLLAPPNTKECVGATSGASANFPGTSGSSTLSPFQHAHKELSGQGH
notes: Capture reagent from Edimer Pharmaceuticals, coated at 1 µg/mL; also called capture reagent; not shown: mouse Fc (mFc)

Reference: patent publication US20160272694A1 (EDIMER PHARMACEUTICALS, published 2016)
